In publication PMC4408062:

Target: Recombinant human PCSK9 (proprotein convertase subtilisin/kexin type 9) (human) (UniProt Q8NBP7)
UniProt Q8NBP7, sequence (Q8NBP7 31-692): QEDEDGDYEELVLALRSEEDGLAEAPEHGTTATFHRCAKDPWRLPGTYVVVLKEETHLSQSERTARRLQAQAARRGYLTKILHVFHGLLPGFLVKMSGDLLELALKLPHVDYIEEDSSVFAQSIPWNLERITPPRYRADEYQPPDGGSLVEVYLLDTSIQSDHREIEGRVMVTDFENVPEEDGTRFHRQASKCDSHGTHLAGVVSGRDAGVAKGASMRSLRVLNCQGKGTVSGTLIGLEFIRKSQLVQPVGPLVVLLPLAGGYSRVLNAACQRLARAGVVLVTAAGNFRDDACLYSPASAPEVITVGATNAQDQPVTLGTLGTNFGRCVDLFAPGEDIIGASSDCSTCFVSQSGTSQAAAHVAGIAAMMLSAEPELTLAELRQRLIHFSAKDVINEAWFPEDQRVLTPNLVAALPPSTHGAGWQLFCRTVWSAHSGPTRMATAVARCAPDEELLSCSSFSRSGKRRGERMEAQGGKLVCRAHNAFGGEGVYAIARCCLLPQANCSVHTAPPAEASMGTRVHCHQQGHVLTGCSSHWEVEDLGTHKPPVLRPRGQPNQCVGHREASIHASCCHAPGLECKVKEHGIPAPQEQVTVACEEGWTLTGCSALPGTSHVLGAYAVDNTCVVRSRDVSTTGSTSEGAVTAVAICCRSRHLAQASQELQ

- internalisation of PCSK9-488/J16 complexes in APLP2 siRNA treated HepG2 cells with 2.5 μg/ml LDL: 2.5 fold
Substance: LDL (low density lipoprotein particle)
